In this assay the target is biotinylated SARS-CoV-2 fusion peptide (Severe acute respiratory syndrome …, biotin on the N-terminus). Briefly: BLI. Conditions: both partners purified.

B1: COV44–62 Fab VH R50W (Fab, V domains shown)
VH: QMQLMQSGAEVKKPGASVTVSCKASGDTFSDYRIHWVRQAPGQGLEWMGWMNPKSGDTNFAQKFQGRVTMTRDMSINTAYMTLSGLTFDDTALYYCASLLIVGGFDPLDDFEVWGQGTMVTISS
VL: QSALTQPPSASGSPGQSVTISCSGTSSDVGGYNFVSWYQHHPGKAPKILIYEVTKRPSGVPDRFSGSKSGNTASLTVSGLQAEDEADYYCSSYGGTNNLLFGGGTKLTVL
For the molecule B1, the binding result is given as “no binding (tested: 300 nM)”.

The record behind these values is publication doi:10.1101/2023.06.06.543969 (bioRxiv, 2023).
